Amyloid nucleation score data for 132 substances are collected here from the supplement of paper PMC12042874.

The data set can be described thus: amyloid nucleation score (Sup35N fusion, yeast selection) (log enrichment); library NNK3; higher = more nucleation; inactive = no reads after selection. The method, boiled down:
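Three technical output replicates were used for random libraries. Psi-negative yeast expressing peptides of 20 random codons fused to Sup35N were induced with 100 μM copper sulfate for 24 hours and grown 7 days at 30°C on medium lacking adenine and uracil, and input and output plasmid inserts were Illumina-sequenced, excluding sequences with under 100 input reads. The nucleation score is the DiMSum log enrichment of output over input reads, centred on the mode score of non-aggregating sequences.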

± gives the uncertainty stated by the source.

With NNVGPAFHDAC, the amyloid nucleation score entry is “inactive”. For VGHFISYCNRIFSAKAIIVF, the amyloid nucleation score result is “inactive”. PCVYWSLNCSVVIIFSTRLL: the amyloid nucleation score entry is “inactive”. Regarding IGDMSLLLTCGGWSLIQLQA, the amyloid nucleation score entry is “inactive”. To LQSCKATPRLCFEATLGRGV belongs -0.992 ± 2.5; to TGRVLGYGLL, “inactive”. Regarding GTLISEVCIFQ, the amyloid nucleation score entry is “inactive”. Take SDFRTRTNIQYLQYKNNSSP: the amyloid nucleation score result was “inactive”. Under FCEMHYRLDN stands 0.424 ± 0.17. To SSIGVGSFCSVRCLYDHDTS belongs “inactive”. IVVCAQTLHSLGPRPIEPTQ: the amyloid nucleation score entry is “inactive”.

Substance VMHMWCHQGRVWFSTSGFLG registered an amyloid nucleation score of 0.35 ± 0.19. With FSNVRDFGFGKDY, the amyloid nucleation score entry was “inactive”. In the case of RTVDSH, the amyloid nucleation score result was “inactive”. As to EFAEMHTAVLVERISSKVII, the amyloid nucleation score result is “inactive”. In turn, AVTFTHRFSRISPCHRRRWK had an amyloid nucleation score of 1.16 ± 0.1. For CIVLLLTPSLGDWYTEDDFL, the amyloid nucleation score result is “inactive”.

As to PTLYRQNGLLWLVDGEKLIR, the amyloid nucleation score entry was “inactive”. Take ALMLDIFGRCTLRFRISGHG: the amyloid nucleation score entry is “inactive”. Under VCWSHKCRVDVS stands “inactive”; under NSYIFVQALMTFGDLTWAFH, 2.34 ± 0.073. Turning to LVVVR, the amyloid nucleation score result was “inactive”. With LHYMYTYFTTKVLSSRIGGV, the amyloid nucleation score result was “inactive”. The substance DSIVICQFIFDIKFLDKRKC came in with an amyloid nucleation score of 1.77 ± 0.085.

Regarding DLDIRIFMVHDPAYCSLCSF, the amyloid nucleation score entry was “inactive”.

For the substance VYMVTDRGR, the amyloid nucleation score result is “inactive”. Consider ILIGPSGFMYLDVSFFQFQR, for which the amyloid nucleation score is 0.856 ± 0.25. For the substance YVLELGAGGPKNMIHDMNAD, the amyloid nucleation score entry was “inactive”. As to FVVYL, the amyloid nucleation score result is “inactive”. For REDILLRSSFSDSHVGRLKT, the amyloid nucleation score entry is “inactive”. Under GFRRRSMDALSVTVDSVVAP stands “inactive”. To VLTSYGRNRH belongs “inactive”; to VNDVLIRKCLAMESNVNEAI, “inactive”; to YFSVLSESVSHSDVFRS, “inactive”.

In the case of NLKRTQLFLHLFRMGCFHT, the amyloid nucleation score result was “inactive”. In the case of NRKSRSYTLFLV, the amyloid nucleation score result was “inactive”.

Turning to MRLCAGSCAVFMWNVLVMLG, the amyloid nucleation score result was “inactive”. In the case of LSGSRTRSRFPDCLNCIS, the amyloid nucleation score entry was “inactive”. To NDKLWQWMGNISVRCFFINV belongs “inactive”; to RGMFTFNYMNWGKDLLRPRL, “inactive”; to KICAK, “inactive”. Under VMGDSVRIAELQIWAEINGL stands 1.07 ± 0.14; under GFVNSVRFDLIECDVLKRSN, “inactive”; under EYIAI, “inactive”. For the substance GWHYMYSGYANYIGFSLPLY, the amyloid nucleation score result was “inactive”. Consider LSYGRGVTVLYVLWSYFISR, for which the amyloid nucleation score result is “inactive”. Turning to VCVRKLELGDCLKCG, the amyloid nucleation score result is “inactive”.

Regarding LCTCTLCSLYV, the amyloid nucleation score result was “inactive”.

On to LAITLRLLFVNIIFTDPDLY, for which the amyloid nucleation score entry was “inactive”. LCDFSLGGYSGNCYIFKMSV showed an amyloid nucleation score of 0.739 ± 0.28.

With NVTTVFNKIPLPDSFNMRRW, the amyloid nucleation score amounted to 1.28 ± 0.084.

In turn, LFASWEDFLASSRYWRLEKR registered an amyloid nucleation score of 0.356 ± 0.39. Regarding SLNCDGSSDGRCAAYQIWLC, the amyloid nucleation score result is “inactive”.

As to ITGMVPWSSLESSRPGSLKR, the amyloid nucleation score result was “inactive”. LWQNSDLSSSDEYGQRFGKR yielded an amyloid nucleation score of -0.706 ± 1. On to LVYVLDCRAKLTNYLISTLY, for which the amyloid nucleation score result was “inactive”.

In turn, VIYRSYLRIDSFIGRGGLII returned an amyloid nucleation score of 0.567 ± 0.26. With VILMFDSCGGFDW, the amyloid nucleation score entry was “inactive”. As to RDSFVFYVY, the amyloid nucleation score result is “inactive”.

With FIVVVTYARWHSRYVSGWVS, the amyloid nucleation score entry is “inactive”. For the substance NWFCRGVIELPHPYAQTNFS, the amyloid nucleation score result was “inactive”.

Regarding RYCGYHGVRFCSVCRFNMSL, the amyloid nucleation score result was “inactive”. IQPCFIGIGVGYSRFVGRFF returned an amyloid nucleation score of 0.982 ± 0.22. Consider RLSHTMCRVLCHWVMSYSVS, for which the amyloid nucleation score entry was “inactive”. HTTALIGANDSA displayed an amyloid nucleation score of 0.024 ± 0.46. For VVCLYILHIPCSVRRHTLAD, the amyloid nucleation score result was “inactive”. To NLAFP belongs “inactive”; to FGRVT, “inactive”; to SVNIMRSLIWH, “inactive”. In the case of SMSSTSYIGSSLVMIARNKF, the amyloid nucleation score result was “inactive”.

Substance INLVNTLFTIILMRSYRRTR gave an amyloid nucleation score of 0.022 ± 0.31. As for MALSRILTALVVLLLTVVVC, the amyloid nucleation score entry was “inactive”. As for RESVTSPILILSWEGISRCH, the amyloid nucleation score entry was “inactive”. Regarding TVIMNLYAPP, the amyloid nucleation score was determined as 2.51 ± 0.053. On to DFHVLRYVLFRWMWIIWRKG, for which the amyloid nucleation score result was “inactive”. Take TSWRVFVGYWMG: the amyloid nucleation score result was “inactive”. For the substance QAVMKRAALVPTRTAKSLPS, the amyloid nucleation score result is “inactive”. With CMQLVMSYTVCFVDGGVLA, the amyloid nucleation score result is “inactive”. With INTGMASGSSGTYVSAGIEA, the amyloid nucleation score result was “inactive”.

Turning to IRASFEPWVLVRVFYSLCYG, the amyloid nucleation score result is “inactive”. With VRYSPDRKFGETCIKQAVMT, the amyloid nucleation score result is “inactive”.

For the substance LKIWGRFITGETV, the amyloid nucleation score entry is “inactive”. In the case of SVSSYAICVEACNYFRSRLV, the amyloid nucleation score entry was “inactive”. Consider FWMRFKHDW, for which the amyloid nucleation score was found to be 1.29 ± 0.16. Consider GRTYSGYTGWRGVLGHDLVM, for which the amyloid nucleation score entry was “inactive”. Under FYSCKSTAGCSTTIEGARNY stands “inactive”; under FVLHNS, “inactive”; under NNCSRICM, “inactive”. To STNPPNRL belongs “inactive”; to TTVDDNFVHRRPM, “inactive”; to LVSWSIA, “inactive”.

Consider CLCSTRVRGSFPPDSTVHNF, for which the amyloid nucleation score result was “inactive”. Regarding KFGVLRLVFSTLVSTLSRMV, the amyloid nucleation score result is “inactive”. Consider KRMSKKALRLVVSYFSPS, for which the amyloid nucleation score entry was “inactive”. As for WYSCAKMANIHIVSVVTTST, the amyloid nucleation score entry is “inactive”. On to GVGPVGRF, for which the amyloid nucleation score entry is “inactive”. In the case of WCFCFMCSFMTKFFHYLGS, the amyloid nucleation score entry is “inactive”. As for VTLRCNGDMVYHYLPCGVLR, the amyloid nucleation score entry is “inactive”.

For the substance SIDLNGKG, the amyloid nucleation score result was “inactive”.

As to VWFGESAFRLVSELCIIKDV, the amyloid nucleation score result is “inactive”. RFTMWRNDHC came in with an amyloid nucleation score of 0.421 ± 0.38. As for MIYGNWHIWFDVTAVKYEVG, the amyloid nucleation score entry was “inactive”. CDIPFF: the amyloid nucleation score entry was “inactive”. As to CVVVETLLNMRRSRY, the amyloid nucleation score result is “inactive”. In the case of WCDDFWLYVVLGYGLCFVLC, the amyloid nucleation score result is “inactive”. In the case of IWGPTADKSRSVIGSVIKQG, the amyloid nucleation score result was “inactive”. For HLYHENSVFQLCVCTFVYSS, the amyloid nucleation score amounted to 2.91 ± 0.069. With MDVWASYMTVSESVCSSLVR, the amyloid nucleation score result was “inactive”. Take YPLRSGF: the amyloid nucleation score result was “inactive”.

Substance AFIRFTVFNIGVKKYSCL came in with an amyloid nucleation score of 1.55 ± 0.065. LFILFSNGYTVGYNSDNRSF came in with an amyloid nucleation score of 0.601 ± 0.22. Consider RVAQTAVRVSWALDRFYLWD, for which the amyloid nucleation score result was “inactive”. FSKIHI: the amyloid nucleation score entry is “inactive”. To LSCHETCLVISGLCMLMMRL belongs “inactive”; to FSVMYRWRYFGDSAFWISVF, “inactive”; to TIVYSLT, “inactive”.

For the substance GLHLYEFRGRCNTSVDSQTK, the amyloid nucleation score result is “inactive”.

In turn, YSIDMHVNVHGTYYLMSKWV returned an amyloid nucleation score of 1.73 ± 0.12. FFFTATLNQLSYTYIFSKLA: the amyloid nucleation score entry was “inactive”. On to LMSVLRFQTP, for which the amyloid nucleation score result was “inactive”. For FRLILM, the amyloid nucleation score result was “inactive”.

GYECLIVFFMRLLSIPVVSD: the amyloid nucleation score result was “inactive”. Take LRLVGLLMGNIFFELYGDLC: the amyloid nucleation score result was “inactive”.

Consider VLQLDL, for which the amyloid nucleation score result was “inactive”. Under DCLSVEFVLNTRVAYWCTCA stands -0.092 ± 0.52; under LLLIWWNLALNLKLFFELKV, “inactive”. Turning to FSAPL, the amyloid nucleation score entry was “inactive”.

For the substance RYTTY, the amyloid nucleation score result was “inactive”.

Consider TFCMLCYQNSIFTVYNSEYQ, for which the amyloid nucleation score was 3.36 ± 0.064. To PNPYGNGIITWKN belongs “inactive”; to WVSFCVCWNFNLY, 3.18 ± 0.064; to SLYHSLSGYHFCISMLL, “inactive”.
